# Reference: publication PMC3511906 (Biochemistry, 2012)
# B1: MIP-2/CXCL2 (murine macrophage inflammatory protein-2) (natural protein, UniProt P10889 28-100, looked up)
# chain: AVVASELRCQCLKTLPRVDFKNIQSLSVTPPGPHCAQTEVIATLKGGQKVCLDPEAPLVQKIIQKILNKGKAN
# Target: the molecule itself
# Experiment: crystal structure
protein,measurement,value
B1,stoichiometry N,2
